Reference: article PMC7795613

Molecular target: DDX3X 132-607 (human) (UniProt O00571)
Experiment: MST
Details: 20 nM labelled RNA, DDX3X 2-fold dilutions from 19 uM, 10 min at room temperature, measured at 25 C, assay buffer not stated (protein SEC buffer 50 mM …)

Sequence of DDX3X 132-607 (human) (O00571 132-607): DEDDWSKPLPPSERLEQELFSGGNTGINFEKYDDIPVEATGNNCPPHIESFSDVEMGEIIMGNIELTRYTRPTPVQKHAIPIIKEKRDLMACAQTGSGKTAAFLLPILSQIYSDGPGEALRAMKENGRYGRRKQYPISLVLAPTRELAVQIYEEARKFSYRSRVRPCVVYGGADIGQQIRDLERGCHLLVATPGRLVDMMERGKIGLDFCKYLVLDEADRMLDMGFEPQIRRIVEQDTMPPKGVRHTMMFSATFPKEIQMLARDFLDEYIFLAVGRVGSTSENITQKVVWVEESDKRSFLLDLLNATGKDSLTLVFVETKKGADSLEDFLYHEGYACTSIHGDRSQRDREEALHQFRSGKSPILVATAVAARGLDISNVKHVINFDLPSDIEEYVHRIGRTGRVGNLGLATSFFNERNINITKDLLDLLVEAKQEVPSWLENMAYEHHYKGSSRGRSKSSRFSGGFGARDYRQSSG

## GGAGAAGUUUUAUCGUGUGAACUUCUUGGCUUAGUAUCGUUGAGAAGAAUCGAGAGAUUAGUGCAGUUUAAACAGUUUUUUAGAACGGAAGAACAACCAUGACUAAAAAACCAGGAGGGCCCGGAAAAAACCGGGCCAUCAAUAUGCUGAAACGCGGAU [JEV 5' TR]
  Kd: 1.66 µM

## AGUUGUUACUGUUGCUGACUCAGACUGCGACAGUUCGAGUUUGAAGCGAAAGCUAGCAACAGUAUCAACAGGUUUUAUUUGGAUUUGGAAACGAGAGUUUCUGGUCAUGAAAAACCCAAAAAAGAAAUCCGGAGGAUUCCGGAUUGUCAAUAUGCUAAAACG [ZIKV 5' TR 1-163]
  Kd: 7.05 µM
